Measured values: paper PMC10558642 (2023)

B1: His-OTUD5 (natural protein)
chain: MTILPKKKPPPPDADPANEPPPPGPMPPAPRRGGGVGVGGGGTGVGGGDRDRDSGVVGARPRASPPPQGPLPGPPGALHRWALAVPPGAVAGPRPQQASPPPCGGPGGPGGGPGDALGAAAAGVGAAGVVVGVGGAVGVGGCCSGPGHSKRRRQAPGVGAVGGGSPEREEVGAGYNSEDEYEAAAARIEAMDPATVEQQEHWFEKALRDKKGFIIKQMKEDGACLFRAVADQVYGDQDMHEVVRKHCMDYLMKNADYFSNYVTEDFTTYINRKRKNNCHGNHIEMQAMAEMYNRPVEVYQYSTGTSAVEPINTFHGIHQNEDEPIRVSYHRNIHYNSVVNPNKATIGVGLGLPSFKPGFAEQSLMKNAIKTSEESWIEQQMLEDKKRATDWEATNEAIEEQVARESYLQWLRDQEKQARQVRGPSQPRKASATCSSATAAASSGLEEWTSRSPRQRSSASSPEHPELHAELGMKPPSPGTVLALAKPPSPCAPGTSSQFSAGADRATSPLVSLYPALECRALIQQMSPSAFGLNDWDDDEILASVLAVSQQEYLDSMKKNKVHRDPPPDKS
modifications: Red-tris-NTA dye on the His tag (MST only)
B2: recombinant GPX4 protein (SPR and MST) (natural protein)
chain: MSLGRLCRLLKPALLCGALAAPGLAGTMCASRDDWRCARSMHEFSAKDIDGHMVNLDKYRGFVCIVTNVASQUGKTEVNYTQLVDLHARYAECGLRILAFPCNQFGKQEPGSNEEIKEFAAGYNVKFDMFSKICVNGDDAHPLWKWMKIQPKGKGILGNAIKWNFTKFLIDKNGCVVKRYGPMEEPLVIEKDLPHYF

What was measured:
[1] = target: B2; assay: SPR
His-OTUD5 = target: B1; assay: MST

| Kd [1] | Kd (His-OTUD5) | Binder |
| --- | --- | --- |
| 0.72 µM | – | B1 |
| – | 0.23 µM | B2 |
